In IntAct's records for PubMed 21633354:

The substances below were run against T1, cnd2_schpo cnd2 (UniProt Q9Y7R3).
T1 sequence: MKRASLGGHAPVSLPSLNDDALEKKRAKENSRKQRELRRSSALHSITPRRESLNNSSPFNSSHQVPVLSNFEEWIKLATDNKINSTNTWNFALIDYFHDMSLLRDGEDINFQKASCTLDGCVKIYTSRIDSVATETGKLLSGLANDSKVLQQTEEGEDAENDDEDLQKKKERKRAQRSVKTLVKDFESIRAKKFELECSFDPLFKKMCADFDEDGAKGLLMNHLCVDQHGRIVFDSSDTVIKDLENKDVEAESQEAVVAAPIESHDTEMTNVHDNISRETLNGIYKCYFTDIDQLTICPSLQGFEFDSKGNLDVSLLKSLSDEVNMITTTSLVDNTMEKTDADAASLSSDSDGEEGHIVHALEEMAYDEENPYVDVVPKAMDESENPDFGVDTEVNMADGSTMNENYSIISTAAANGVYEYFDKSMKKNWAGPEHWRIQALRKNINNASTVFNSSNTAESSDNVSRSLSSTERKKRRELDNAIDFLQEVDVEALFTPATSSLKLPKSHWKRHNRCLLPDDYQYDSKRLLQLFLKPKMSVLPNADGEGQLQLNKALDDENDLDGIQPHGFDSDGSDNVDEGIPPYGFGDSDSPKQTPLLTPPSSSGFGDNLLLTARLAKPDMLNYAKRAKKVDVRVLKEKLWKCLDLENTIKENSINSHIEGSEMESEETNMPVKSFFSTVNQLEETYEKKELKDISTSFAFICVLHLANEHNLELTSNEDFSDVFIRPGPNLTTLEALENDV

| Substance | effect of a mutation on the interaction |
| --- | --- |
| Histone H2A-beta (Schizosaccharomyces pombe (strain ATCC 38366 / 972)) (from UniProt P04910) K5A;K9A;K14A;R19A;K22A | disrupting interaction strength |
| Histone H2A-beta (Schizosaccharomyces pombe (strain ATCC 38366 / 972)) (from UniProt P04910) K14A;R19A;K22A | disrupting interaction strength |
| Histone H2A-beta (Schizosaccharomyces pombe (strain ATCC 38366 / 972)) (from UniProt P04910) R19A | decreasing interaction |
